Measured values as given in US20090192048A1, “METHOD OF PRODUCING A […] AGENT FOR BINDING A LIGAND” (priority 2005, published 2009).
Ends that are not written are not given here.

What was measured:
[1] = Retention of peptides in V-bottomed polypropylene wells; type: physicochemical; settings: V-bottom wells, 500V scan
Method in brief: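 1 μl of 10 μM peptide or TAMRA in 10 mM Tris-HCl pH 8.0/50% acetonitrile dried in the dark in flat- or V-bottomed polypropylene wells. Some wells washed 15 min at RT with 1 M NaCl in 10 mM Tris pH 8.0, others left untreated; all redissolved in 50 μl Tris/acetonitrile and fluorescence imaged at 532 nm excitation, 580 BP 30 filter.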

[2] = Time-dependent persistence of peptide 2DOS-2 on a polypropylene hydrophobic surface in aqueous buffer; type: physicochemical
Experimental: The time-dependent persistence of peptide 2DOS-2 (see above) deposited onto a polypropylene hydrophobic surface in the presence of aqueous buffer was investigated as shown below:
Twelve 100 μl aliquots of 5 μM peptide 2DOS-2 in 5 mM tris-HCl (pH 8.0) in 75% (v/v) aqueous acetonitrile were dispensed to the wells of the top row of a Costar microtitre plate.
The peptide samples were allowed to evaporate to dryness in the dark.
The dried peptide samples in wells 1-10 were incubated with 250 μl of 1 M NaCl in 10 mM tris-HCl (pH 8.0) for the time indicated below at room temperature. All supernatants were pipetted up and down 8 times after incubation and the supernatants were then removed and placed in the wells of the bottom row of the microtitre plate.
The residual surface-bound peptides in all twelve wells were finally resuspended in 50 μl of 10 mM tris-HCl (pH 8.0) in 50% (v/v) aqueous acetonitrile and the microtitre plates were imaged at 200 μm resolution on a Typhoon Trio Plus variable mode imager (Amersham Biosciences) with the green (532 nm) laser and the 580 BP 30 filter at the PMT voltages indicated below and at normal sensitivity. The scan height was set at +3 mm and the sample was pressed during scanning.
The fluorescence images were analysed using ImageQuant TL v2003.03 (Amersham Biosciences).

N-TAMRA-Phe-Asp- Phe-Ala-Phe-Ser- Phe-Lys-Phe-C ({TAMRA}-FDFAFSFKF) [Peptide 2DOS-2]
Percent retention [1]: 86% | Untreated fluorescence ([1]; unwashed): 9,495,183 | Retained fluorescence ([1]; washed 15 minutes in 1 M NaCl in 10 mM tris-HCl (pH 8.0)): 8,127,309 | Percent retention ([2]; 0 minutes in 1 M NaCl/10 mM tris-HCl (pH 8.0)): 90% | Retained fluorescence ([2]; 0 minutes in 1 M NaCl/10 mM tris-HCl (pH 8.0), 300V scan): 904,211 | Stability of retention on polypropylene over time (in words) ([2]; 1 M NaCl/10 mM tris-HCl (pH 8.0), up to 510 minutes): stable for extended periods of time | Percent retention ([2]; 2.5 minutes in 1 M NaCl/10 mM tris-HCl (pH 8.0)): 90% | Retained fluorescence ([2]; 2.5 minutes in 1 M NaCl/10 mM tris-HCl (pH 8.0), 300V scan): 902,082 | Untreated fluorescence (average) ([2]; 300V scan, unwashed wells): 1,000,613 | Percent retention ([2]; 5 minutes in 1 M NaCl/10 mM tris-HCl (pH 8.0)): 85% | Retained fluorescence ([2]; 5 minutes in 1 M NaCl/10 mM tris-HCl (pH 8.0), 300V scan): 847,767 | Percent retention ([2]; 10 minutes in 1 M NaCl/10 mM tris-HCl (pH 8.0)): 79% | Retained fluorescence ([2]; 10 minutes in 1 M NaCl/10 mM tris-HCl (pH 8.0), 300V scan): 792,427 | Percent retention ([2]; 20 minutes in 1 M NaCl/10 mM tris-HCl (pH 8.0)): 75% | Retained fluorescence ([2]; 20 minutes in 1 M NaCl/10 mM tris-HCl (pH 8.0), 300V scan): 749,522 | Percent retention ([2]; 40 minutes in 1 M NaCl/10 mM tris-HCl (pH 8.0)): 77% | Retained fluorescence ([2]; 40 minutes in 1 M NaCl/10 mM tris-HCl (pH 8.0), 300V scan): 769,659 | Percent retention ([2]; 80 minutes in 1 M NaCl/10 mM tris-HCl (pH 8.0)): 74% | Retained fluorescence ([2]; 80 minutes in 1 M NaCl/10 mM tris-HCl (pH 8.0), 300V scan): 740,227 | Percent retention ([2]; 160 minutes in 1 M NaCl/10 mM tris-HCl (pH 8.0)): 74% | Retained fluorescence ([2]; 160 minutes in 1 M NaCl/10 mM tris-HCl (pH 8.0), 300V scan): 739,600 | Percent retention ([2]; 320 minutes in 1 M NaCl/10 mM tris-HCl (pH 8.0)): 81% | Retained fluorescence ([2]; 320 minutes in 1 M NaCl/10 mM tris-HCl (pH 8.0), 300V scan): 805,530 | Percent retention ([2]; 510 minutes in 1 M NaCl/10 mM tris-HCl (pH 8.0)): 80% | Retained fluorescence ([2]; 510 minutes in 1 M NaCl/10 mM tris-HCl (pH 8.0), 300V scan): 803,741
